Data: patent US20060287229A1, “Novel CD40 variants” (priority 2004, published 2006)
“Also recorded” adds a separate entry of the source.

Assays:
[1] = system: K562 cells; test: RT-PCR of CD40 splice forms in K562 cells treated with etoposide; type: cell-based; settings: 20 μM Etoposide, various time intervals
Experimental: Samples of RT reactions of K562 treated with etoposide were prepared and used for PCR using CD40 primers (35 cycles). Etoposide (Sigma) is known as double-stranded DNA breakage and apoptosis inducing agent. The RT reactions were checked before the analysis to exclude possible genomic contamination and to ensure similar cDNA concentrations in the different samples, using quantitation with GAPDH (not shown).

[2] = system: K562 cells; test: Caspase activation in K562 cells (immunoblot with anti cleaved PARP antibody); type: cell-based; settings: 25 μM etoposide, 17 hrs
Experimental: For this purpose K562 cells were treated with 25 μM etoposide for 17 hrs, and the activation of caspases, one of the hallmarks of apoptosis, was measured. To measure caspase activation, the cells were lysed, immunoblotted and PARP, a known substrate for caspase-3, was probed using anti cleaved PARP antibody (Cell Signaling, Beverly, Mass.).

[3] = target: T1, human CD154 (Homo sapiens, UniProt P29965); test: FACS analysis of sCD40 binding to mouse fibroblasts expressing human CD154; settings: Fc tagged proteins, 1-50 μg/ml, 4° C., 60 min; mouse fibroblasts stably transfected with full length human CD154
T1 construct: stably transfected with full length human CD154; expressed in transfected cells; host or cells: mouse fibroblasts, stably transfected
T1 sequence (P29965 1-261): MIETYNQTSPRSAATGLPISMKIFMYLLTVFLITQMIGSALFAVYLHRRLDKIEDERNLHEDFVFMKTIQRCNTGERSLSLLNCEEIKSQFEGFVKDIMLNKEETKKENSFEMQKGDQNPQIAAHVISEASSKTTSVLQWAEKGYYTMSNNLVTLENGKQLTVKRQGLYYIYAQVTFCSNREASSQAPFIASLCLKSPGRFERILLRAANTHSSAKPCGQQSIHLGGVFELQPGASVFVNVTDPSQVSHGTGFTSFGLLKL
Experimental: 10^6 mouse fibroblasts (stably transfected with full length human CD154) were incubated with either the known CD40 soluble variant, sCD40 WT (panel C, FIG. 17), the variant CD40-skipping 6 (panel A, FIG. 17) or the variant CD40-skipping 5 (panel B, FIG. 17). All CD40 variants were Fc tagged, and present at a concentration of 1-50 μg/ml at 4° C. for 60 min in total volume of 100 μl (0.5×10^6 cells). […] Analysis was performed using BD FACsCalibur. Panel E in FIG. 17 summarizes the mean fluorescence shift, as plotted versus various concentrations of CD40 protein.
Briefly, the FACS protocol was performed as follows. Mouse fibroblasts were trypsinized, and washed twice in PBS; cells were centrifuged at 1500 rpm for 10 min between washes. Next, the cells were re-suspended in FACS buffer (0.2% BSA and 0.02% sodium azide diluted 1/10 in PBS) to give 5-10×10^6 cells mL. Cells were placed in FACS test-tubes at a volume of 100 or 200 microliters per tube. […]
Next, 2 μL (1:50) anti CD40 non-blocking antibody (EA-5 mouse IgG1 PE-conjugated, obtained from Calbiochem) or controls (same isotype PE conjugated) were added to the tubes, and incubated for 30 min at 4° C. […] Next, 0.5 mL PBS was added to tubes, which were read in a FACS machine (BD FACSCalibur). […]
For this experiment, the controls included performing parallel assays with: mouse fibroblasts not expressing hCD154; non-relevant Fc (EA5, which is a mouse anti-CD40 antibody, see Malmborg Hager et al., Scandinavian J. 1 mm. 57:517-524 (2003) or non-Fc tagged proteins or purification mock; known CD40 soluble protein; secondary Ab only and isotype control only (isotype refers to an antibody control, featuring the same type of antibody but one which is not able to bind CD40). The axes are as follows: Y=cell counts; X=log scale of fluorescence intensity. M=A marker placed above the peak of positively stained cells on the histogram plot which provide the statistics of the stained population.

[4] = system: RANTES secretion via the CD40-CD154 pathway; test: RANTES cell assay (HPMC cells overlaid with mouse fibroblasts/CD154-mouse fibroblasts, ELISA RANTES test); type: cell-based, human; settings: for dose response of inhibition of RANTES secretion (in words): FIG. 18G: CD154 ligand present, high cell number 10,000; for level of cytokine RANTES secretion (summary statement): human peritoneal cells plus mouse fibroblasts expressing CD154 ligand
Experimental: Skipping 5 protein was administered to a mixture of human peritoneal cells (HPMC cells), which express the CD40 receptor on their membrane, and mouse fibroblasts transfected to express the CD154 ligand. The ability of the soluble skipping 5 protein to compete with the CD40 membrane-bound receptor for binding to the CD154 ligand presented on the mouse fibroblasts was thus tested. This ability was measured by determining the resultant level of the cytokine RANTES, which is a cytokine indicative of T cell activation, as compared to when a positive control of interferon (which raises the level of RANTES via a CD40-related pathway) was administered alone.
HPMC cells were grown in M199+10% FCS (Biological Industries, Bet Ha'emek, Israel), trypsinized (using trypsine from Biological Industries, Bet Ha'emek, Israel, 5 ml/75 cm^2 cell culture flask), and recultured into 96-well plates. Cell should reach at least 80% confluence before further use.
Mouse fibroblasts/CD154-mouse fibroblasts were grown in DMEM+10% FCS (Biological Industries). Cells were trypsinized, pelleted (5 min 500 at rpm), counted (½ vol cells+½ vol trypan blue) and resuspended in M199+10% FCS. Cells were then diluted (10,000 or 5000 cells per ml).
CD40 proteins/antibodies were prepared in various concentrations in PBS according to the desired dose response/treatment (volume of 1 reaction should not exceed 20 microliters), followed by adding the same volume of PBS to the negative and positive controls.
The CD40 protein was added to 100 microliters of mouse fibroblasts or CD154-mouse fibroblasts in eppendorf tubes (final volume dependant on duplicates/triplicates) and incubated at R.T for 1 h at 200 rpm (rotation during incubation)
During this incubation time the HPMC were prepared, by removing medium and washing cells twice, and adding 100 microliters of fresh M199+10% FCS with or without 100 U/ml IFN (PeproTech, 50U/μl).
The CD40 L cells mixtures were overlaid on the HPMC (110 ul/well) and incubated O.N (at 37° C., 5% CO2).
100 microliters were removed from supernatant and placed into new 96 well plates, followed by diluting the samples 1/10 in M199+10% FCS and using diluted samples for the ELISA RANTES test.
The cells in the experiment plate were checked for viability.

[5] = FIG. 18C: HPMC cells plus mouse fibroblasts expressing CD154, with interferon
[6] = FIG. 18E: fixed concentration 200 nM sCD40 protein, varying number of CD154+ mouse fibroblasts
[7] = FIGS. 18A-C, complete system with INF and CD154 mouse fibroblasts

COc1cc([C@@H]2c3cc4c(cc3[C@@H](O[C@@H]3O[C@@H]5CO[C@@H](C)O[C@H]5[C@H](O)[C@H]3O)[C@H]3COC(=O)[C@H]23)OCO4)cc(OC)c1O [Etoposide]
expression levels of secreted CD40 splice variant skipping exon 5 (RT-PCR) [1]: increase
known wild type CD40 expression levels (RT-PCR) [1]: decrease
cleaved PARP (caspase activation) [2]: appearance of a band in the expected size

WT-sCD40-Fc: known CD40 extracellular domain (soluble, truncated) fused to Fc of IgG1 [reference compound]
sCD40 binding to membrane CD154 (FACS) [3]: significant binding
Rantes level [4, 5]: approximately 1000 pg/ml
inhibition of Rantes level [4, 5]: 50%
inhibition of RANTES secretion [4, 6]: 40-100%
dose response of inhibition of RANTES secretion (in words) [4]: inhibitory effect
effect on RANTES secretion (in words) [4, 7]: inhibitory properties

known truncation product derived from known CD40: known CD40 extracellular domain without transmembrane domain, a simple truncation product of known CD40 [reference compound]
level of cytokine RANTES secretion (summary statement) [4]: decreased level

B1: Skipping 5-sCD40-Fc: CD40 skipping exon 5 splice variant fused downstream to the Fc chain of Immunoglobulin IgG1, expressed in baculovirus (protein)
chain: EPPTACREKQYLINSQCCSLCQPGQKLVSDCTEFTETECLPCGESEFLDTWNRETHCHQHKYCDPNLGLRVQQKGTSETDTICTCEEGWHCTSEACESCVLHRSCSPGFGVKQIAVRPKTWLCNRQAQTRLMLSVVPRIG
modifications: left off: a dimerising Fc or GST
notes: CD40 skipping exon 5 splice variant fused downstream to the Fc chain of Immunoglobulin IgG1, expressed in baculovirus
sCD40 binding to membrane CD154 (FACS) [3]: different properties
effect on RANTES secretion (in words) [4, 6]: stimulatory effect
effect on RANTES level in the absence of CD154 (in words) ([4]; FIGS. 18A and B: HPMC cells only or with untransfected mouse fibroblasts, Interferon dependent): agonistic effect; also recorded: agonistic properties
effect on RANTES secretion (in words) [4, 7]: no inhibition

B2: Skip5: soluble CD40 splice variant lacking exon 5, SEQ ID NO:1, unique tail amino acids 136-160 (protein, listed as Homo sapiens)
chain: MVRLPLQCVLWGCLLTAVHPEPPTACREKQYLINSQCCSLCQPGQKLVSDCTEFTETECLPCGESEFLDTWNRETHCHQHKYCDPNLGLRVQQKGTSETDTICTCEEGWHCTSEACESCVLHRSCSPGFGVKQIAVRPKTWLCNRQAQTRLMLSVVPRIG
dose response of inhibition of RANTES secretion (in words) [4]: did not cause any inhibition
level of cytokine RANTES secretion (summary statement) ([4]; listed as CD40 skipping exon 5 variant): increased level
level of cytokine RANTES secretion (summary statement) ([4]; listed as skipping 5): raise the level of secretion

B3: Skipping 6-sCD40-Fc: Fc-tagged CD40 skipping exon 6 variant (protein)
chain: EPPTACREKQYLINSQCCSLCQPGQKLVSDCTEFTETECLPCGESEFLDTWNRETHCHQHKYCDPNLGLRVQQKGTSETDTICTCEEGWHCTSEACESCVLHRSCSPGFGVKQIATGVSDTICEPCPVGFFSNVSSAFEKCHPWTRSPGSAESPGGDPHHLRDPVCHPLGAGLYQKGGQEANQ
modifications: left off: a dimerising Fc or GST
notes: Fc-tagged CD40 skipping exon 6 variant
sCD40 binding to membrane CD154 (FACS) [3]: significant binding
dose response of inhibition of RANTES secretion (in words) [4]: inhibitory effect
